Experimental data: patent US20140087995A1 (published 2014)
Numbered stars: 1 amine (or outer) side, 2 acyl side, 3 side chain; on linkers, the order of the positions; unused ones are H or OH. Bridge positions count the residues as written; N and C are the ends. Side chains are listed from the residue outwards. Ends that are not written are not given here. * marks the point of attachment. C20 diacid = O=C(O)CCCCCCCCCCCCCCCCCCC(=O)*; γGlu = O=C(O)[C@H](CCC(=O)[*:2])N[*:1]; AEEA = NCCOCCOCC(=O)O

T1: human amylin receptor (human, UniProt P30988 25-474; O60896 24-148, limits assumed)
T1 construct: whole, on cells; Calcitonin receptor plus RAMP-3 gives the amylin 3(a) receptor; membranes of Amylin 3(a)/CRE-luc cells were used; also called hAmylin-R; hAmylinR
T1 sequence (looked up) 1: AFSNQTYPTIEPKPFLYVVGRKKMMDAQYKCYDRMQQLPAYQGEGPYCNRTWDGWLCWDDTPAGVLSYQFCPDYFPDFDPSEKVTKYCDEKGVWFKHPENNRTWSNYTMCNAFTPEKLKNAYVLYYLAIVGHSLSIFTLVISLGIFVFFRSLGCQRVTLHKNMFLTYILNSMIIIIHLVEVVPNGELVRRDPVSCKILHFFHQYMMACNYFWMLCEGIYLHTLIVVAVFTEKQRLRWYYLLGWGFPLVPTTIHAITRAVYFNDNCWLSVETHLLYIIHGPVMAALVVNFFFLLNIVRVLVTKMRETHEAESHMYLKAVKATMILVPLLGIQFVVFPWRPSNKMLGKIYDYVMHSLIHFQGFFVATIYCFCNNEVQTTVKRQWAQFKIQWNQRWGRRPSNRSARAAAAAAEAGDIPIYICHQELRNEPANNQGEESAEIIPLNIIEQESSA
T1 sequence (looked up) 2: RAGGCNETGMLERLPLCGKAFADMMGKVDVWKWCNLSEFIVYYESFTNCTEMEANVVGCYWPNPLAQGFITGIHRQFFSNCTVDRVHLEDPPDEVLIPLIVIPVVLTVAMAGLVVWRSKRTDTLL

B1: N^ε1-[(4S)--4-carboxy-4-(19-carboxynonadecanoylamino)butanoyl]-[Glu14,Arg17,Pro21,Pro27,Pro37]-h-amylin (peptide)
peptide: K([γGlu-C20 diacid])CNTATCATQRLAEFLRHSSPNFGAIPSSTNVGSNTP-NH2
modifications: disulfide 2-7; N-terminus assumed
SMILES: CC[C@H](C)[C@H](NC(=O)[C@H](C)NC(=O)CNC(=O)[C@H](Cc1ccccc1)NC(=O)[C@H](CC(N)=O)NC(=O)[C@@H]1CCCN1C(=O)[C@H](CO)NC(=O)[C@H](CO)NC(=O)[C@H](Cc1c[nH]cn1)NC(=O)[C@H](CCCNC(=N)N)NC(=O)[C@H](CC(C)C)NC(=O)[C@H](Cc1ccccc1)NC(=O)[C@H](CCC(=O)O)NC(=O)[C@H](C)NC(=O)[C@H](CC(C)C)NC(=O)[C@H](CCCNC(=N)N)NC(=O)[C@H](CCC(N)=O)NC(=O)[C@@H](NC(=O)[C@H](C)NC(=O)[C@@H]1CSSC[C@H](NC(=O)[C@@H](N)CCCCNC(=O)CC[C@H](NC(=O)CCCCCCCCCCCCCCCCCCC(=O)O)C(=O)O)C(=O)N[C@@H](CC(N)=O)C(=O)N[C@@H]([C@@H](C)O)C(=O)N[C@@H](C)C(=O)N[C@@H]([C@@H](C)O)C(=O)N1)[C@@H](C)O)C(=O)N1CCC[C@H]1C(=O)N[C@@H](CO)C(=O)N[C@@H](CO)C(=O)N[C@H](C(=O)N[C@@H](CC(N)=O)C(=O)N[C@H](C(=O)NCC(=O)N[C@@H](CO)C(=O)N[C@@H](CC(N)=O)C(=O)N[C@H](C(=O)N1CCC[C@H]1C(N)=O)[C@@H](C)O)C(C)C)[C@@H](C)O
notes: also called 14E, 17R, 21P, 27P, 37P
B2: N^ε1N^ε1-[(4S)-4-carboxy-4-(19-carboxynonadecanoylamino)butanoyl]-[His14,Arg17,Pro21,Pro27,Pro34]-h-amylin (peptide)
peptide: K([γGlu-C20 diacid])CNTATCATQRLAHFLRHSSPNFGAIPSSTNVGPNTY-NH2
modifications: disulfide 2-7; N-terminus assumed
SMILES: CC[C@H](C)[C@H](NC(=O)[C@H](C)NC(=O)CNC(=O)[C@H](Cc1ccccc1)NC(=O)[C@H](CC(N)=O)NC(=O)[C@@H]1CCCN1C(=O)[C@H](CO)NC(=O)[C@H](CO)NC(=O)[C@H](Cc1c[nH]cn1)NC(=O)[C@H](CCCNC(=N)N)NC(=O)[C@H](CC(C)C)NC(=O)[C@H](Cc1ccccc1)NC(=O)[C@H](Cc1c[nH]cn1)NC(=O)[C@H](C)NC(=O)[C@H](CC(C)C)NC(=O)[C@H](CCCNC(=N)N)NC(=O)[C@H](CCC(N)=O)NC(=O)[C@@H](NC(=O)[C@H](C)NC(=O)[C@@H]1CSSC[C@H](NC(=O)[C@@H](N)CCCCNC(=O)CC[C@H](NC(=O)CCCCCCCCCCCCCCCCCCC(=O)O)C(=O)O)C(=O)N[C@@H](CC(N)=O)C(=O)N[C@@H]([C@@H](C)O)C(=O)N[C@@H](C)C(=O)N[C@@H]([C@@H](C)O)C(=O)N1)[C@@H](C)O)C(=O)N1CCC[C@H]1C(=O)N[C@@H](CO)C(=O)N[C@@H](CO)C(=O)N[C@H](C(=O)N[C@@H](CC(N)=O)C(=O)N[C@H](C(=O)NCC(=O)N1CCC[C@H]1C(=O)N[C@@H](CC(N)=O)C(=O)N[C@H](C(=O)N[C@@H](Cc1ccc(O)cc1)C(N)=O)[C@@H](C)O)C(C)C)[C@@H](C)O
notes: also called 14H, 17R, 21P, 27P, 34P
B3: N{Alpha-1}-[(4S)-4-carboxy-4-(19-carboxynonadecanoylamino)butanoyl]-[Glu14,Arg17,Pro21,Pro27,Lys34]-h-amylin (peptide)
peptide: {C20 diacid-γGlu}-KCNTATCATQRLAEFLRHSSPNFGAIPSSTNVGKNTY-NH2
modifications: disulfide 2-7
SMILES: CC[C@H](C)[C@H](NC(=O)[C@H](C)NC(=O)CNC(=O)[C@H](Cc1ccccc1)NC(=O)[C@H](CC(N)=O)NC(=O)[C@@H]1CCCN1C(=O)[C@H](CO)NC(=O)[C@H](CO)NC(=O)[C@H](Cc1c[nH]cn1)NC(=O)[C@H](CCCNC(=N)N)NC(=O)[C@H](CC(C)C)NC(=O)[C@H](Cc1ccccc1)NC(=O)[C@H](CCC(=O)O)NC(=O)[C@H](C)NC(=O)[C@H](CC(C)C)NC(=O)[C@H](CCCNC(=N)N)NC(=O)[C@H](CCC(N)=O)NC(=O)[C@@H](NC(=O)[C@H](C)NC(=O)[C@@H]1CSSC[C@H](NC(=O)[C@H](CCCCN)NC(=O)CC[C@H](NC(=O)CCCCCCCCCCCCCCCCCCC(=O)O)C(=O)O)C(=O)N[C@@H](CC(N)=O)C(=O)N[C@@H]([C@@H](C)O)C(=O)N[C@@H](C)C(=O)N[C@@H]([C@@H](C)O)C(=O)N1)[C@@H](C)O)C(=O)N1CCC[C@H]1C(=O)N[C@@H](CO)C(=O)N[C@@H](CO)C(=O)N[C@H](C(=O)N[C@@H](CC(N)=O)C(=O)N[C@H](C(=O)NCC(=O)N[C@@H](CCCCN)C(=O)N[C@@H](CC(N)=O)C(=O)N[C@H](C(=O)N[C@@H](Cc1ccc(O)cc1)C(N)=O)[C@@H](C)O)C(C)C)[C@@H](C)O
notes: also called 14E, 17R, 21P, 27P, 34K
B4: N^ε1-[2-[2-[2-[[(4S)-4-carboxy-4-(19-carboxynonadecanoylamino)butanoyl]amino]ethoxy]ethoxy]acetyl]-[Arg17,Pro21,Pro27]-h-amylin (peptide)
peptide: K([AEEA-γGlu-C20 diacid])CNTATCATQRLANFLRHSSPNFGAIPSSTNVGSNTY-NH2
modifications: disulfide 2-7; N-terminus assumed
SMILES: CC[C@H](C)[C@H](NC(=O)[C@H](C)NC(=O)CNC(=O)[C@H](Cc1ccccc1)NC(=O)[C@H](CC(N)=O)NC(=O)[C@@H]1CCCN1C(=O)[C@H](CO)NC(=O)[C@H](CO)NC(=O)[C@H](Cc1c[nH]cn1)NC(=O)[C@H](CCCNC(=N)N)NC(=O)[C@H](CC(C)C)NC(=O)[C@H](Cc1ccccc1)NC(=O)[C@H](CC(N)=O)NC(=O)[C@H](C)NC(=O)[C@H](CC(C)C)NC(=O)[C@H](CCCNC(=N)N)NC(=O)[C@H](CCC(N)=O)NC(=O)[C@@H](NC(=O)[C@H](C)NC(=O)[C@@H]1CSSC[C@H](NC(=O)[C@@H](N)CCCCNC(=O)COCCOCCNC(=O)CC[C@H](NC(=O)CCCCCCCCCCCCCCCCCCC(=O)O)C(=O)O)C(=O)N[C@@H](CC(N)=O)C(=O)N[C@@H]([C@@H](C)O)C(=O)N[C@@H](C)C(=O)N[C@@H]([C@@H](C)O)C(=O)N1)[C@@H](C)O)C(=O)N1CCC[C@H]1C(=O)N[C@@H](CO)C(=O)N[C@@H](CO)C(=O)N[C@H](C(=O)N[C@@H](CC(N)=O)C(=O)N[C@H](C(=O)NCC(=O)N[C@@H](CO)C(=O)N[C@@H](CC(N)=O)C(=O)N[C@H](C(=O)N[C@@H](Cc1ccc(O)cc1)C(N)=O)[C@@H](C)O)C(C)C)[C@@H](C)O
notes: also called 17R, 21P, 27P
B5: N^ε1-[2-[2-[2-(19-carboxynonadecanoylamino)ethoxy]ethoxy]acetyl]-[Arg17,Pro21,Pro27]-h-amylin (peptide)
peptide: K([AEEA-C20 diacid])CNTATCATQRLANFLRHSSPNFGAIPSSTNVGSNTY-NH2
modifications: disulfide 2-7; N-terminus assumed
SMILES: CC[C@H](C)[C@H](NC(=O)[C@H](C)NC(=O)CNC(=O)[C@H](Cc1ccccc1)NC(=O)[C@H](CC(N)=O)NC(=O)[C@@H]1CCCN1C(=O)[C@H](CO)NC(=O)[C@H](CO)NC(=O)[C@H](Cc1c[nH]cn1)NC(=O)[C@H](CCCNC(=N)N)NC(=O)[C@H](CC(C)C)NC(=O)[C@H](Cc1ccccc1)NC(=O)[C@H](CC(N)=O)NC(=O)[C@H](C)NC(=O)[C@H](CC(C)C)NC(=O)[C@H](CCCNC(=N)N)NC(=O)[C@H](CCC(N)=O)NC(=O)[C@@H](NC(=O)[C@H](C)NC(=O)[C@@H]1CSSC[C@H](NC(=O)[C@@H](N)CCCCNC(=O)COCCOCCNC(=O)CCCCCCCCCCCCCCCCCCC(=O)O)C(=O)N[C@@H](CC(N)=O)C(=O)N[C@@H]([C@@H](C)O)C(=O)N[C@@H](C)C(=O)N[C@@H]([C@@H](C)O)C(=O)N1)[C@@H](C)O)C(=O)N1CCC[C@H]1C(=O)N[C@@H](CO)C(=O)N[C@@H](CO)C(=O)N[C@H](C(=O)N[C@@H](CC(N)=O)C(=O)N[C@H](C(=O)NCC(=O)N[C@@H](CO)C(=O)N[C@@H](CC(N)=O)C(=O)N[C@H](C(=O)N[C@@H](Cc1ccc(O)cc1)C(N)=O)[C@@H](C)O)C(C)C)[C@@H](C)O
notes: also called 17R, 21P, 27P
B6: N^-1-[(4S)-4-carboxy-4-(19-carboxynonadecanoylamino)butanoyl]-Gly[Arg1,Arg17,Pro21,Pro27]-h-amylin (peptide)
peptide: {C20 diacid-γGlu}-GRCNTATCATQRLANFLRHSSPNFGAIPSSTNVGSNTY-NH2
modifications: disulfide 3-8
SMILES: CC[C@H](C)[C@H](NC(=O)[C@H](C)NC(=O)CNC(=O)[C@H](Cc1ccccc1)NC(=O)[C@H](CC(N)=O)NC(=O)[C@@H]1CCCN1C(=O)[C@H](CO)NC(=O)[C@H](CO)NC(=O)[C@H](Cc1c[nH]cn1)NC(=O)[C@H](CCCNC(=N)N)NC(=O)[C@H](CC(C)C)NC(=O)[C@H](Cc1ccccc1)NC(=O)[C@H](CC(N)=O)NC(=O)[C@H](C)NC(=O)[C@H](CC(C)C)NC(=O)[C@H](CCCNC(=N)N)NC(=O)[C@H](CCC(N)=O)NC(=O)[C@@H](NC(=O)[C@H](C)NC(=O)[C@@H]1CSSC[C@H](NC(=O)[C@H](CCCNC(=N)N)NC(=O)CNC(=O)CC[C@H](NC(=O)CCCCCCCCCCCCCCCCCCC(=O)O)C(=O)O)C(=O)N[C@@H](CC(N)=O)C(=O)N[C@@H]([C@@H](C)O)C(=O)N[C@@H](C)C(=O)N[C@@H]([C@@H](C)O)C(=O)N1)[C@@H](C)O)C(=O)N1CCC[C@H]1C(=O)N[C@@H](CO)C(=O)N[C@@H](CO)C(=O)N[C@H](C(=O)N[C@@H](CC(N)=O)C(=O)N[C@H](C(=O)NCC(=O)N[C@@H](CO)C(=O)N[C@@H](CC(N)=O)C(=O)N[C@H](C(=O)N[C@@H](Cc1ccc(O)cc1)C(N)=O)[C@@H](C)O)C(C)C)[C@@H](C)O
notes: also called -1G, 1R, 17R, 21P, 27P

These binders were tested against T1, human amylin receptor (assay: SPA competition binding, displacement of 125I-rat amylin from membranes with human amylin 3(a) receptor (Assay V)).
Summary of the method: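 One-site competition analysis of SPA counts yielded IC₅₀ as a measure of affinity. Membranes were at 35 ng/μL final; incubation was 120 min at 25° C, pH 7.4.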
B1 was tested, and the IC50 was 0.142 nM.
For B2, the IC50 was 0.09 nM.
Work on B3 yielded an IC50 of 0.403 nM.
B4 showed an IC50 of 0.427 nM.
B5 showed an IC50 of 0.076 nM.
B6 gave an IC50 of 0.195 nM.
